T1: GST-RANKL (Mus musculus, UniProt O35235)
T1 construct: a cDNA encoding the core ectodomain of murine RANKL residues 158-316, with or without the G278R substitution; made in house; host or cells: Escherichia coli BL21
T1 sequence (O35235 158-316): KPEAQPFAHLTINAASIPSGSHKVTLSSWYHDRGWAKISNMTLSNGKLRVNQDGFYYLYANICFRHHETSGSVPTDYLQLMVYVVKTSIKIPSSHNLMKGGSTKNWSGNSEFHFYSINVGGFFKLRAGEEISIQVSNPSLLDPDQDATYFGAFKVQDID

T2: RANKL (Mus musculus, UniProt O35235)
T2 construct: expressed in transfected cells; host or cells: HEK 293FT
T2 sequence (O35235 1-316): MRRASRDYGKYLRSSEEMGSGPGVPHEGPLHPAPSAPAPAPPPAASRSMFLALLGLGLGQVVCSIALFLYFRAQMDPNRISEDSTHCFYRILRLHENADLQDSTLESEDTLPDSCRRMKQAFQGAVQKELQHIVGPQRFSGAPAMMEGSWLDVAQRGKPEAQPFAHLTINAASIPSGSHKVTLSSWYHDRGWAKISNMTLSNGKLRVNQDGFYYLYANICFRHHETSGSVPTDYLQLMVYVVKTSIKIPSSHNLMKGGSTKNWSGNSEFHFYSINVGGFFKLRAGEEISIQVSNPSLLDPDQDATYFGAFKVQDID

T3: RANKL (Mus musculus, UniProt O35235, G278R)
T3 construct: expressed in transfected cells; host or cells: HEK 293FT
T3 sequence (O35235 1-316 G278R): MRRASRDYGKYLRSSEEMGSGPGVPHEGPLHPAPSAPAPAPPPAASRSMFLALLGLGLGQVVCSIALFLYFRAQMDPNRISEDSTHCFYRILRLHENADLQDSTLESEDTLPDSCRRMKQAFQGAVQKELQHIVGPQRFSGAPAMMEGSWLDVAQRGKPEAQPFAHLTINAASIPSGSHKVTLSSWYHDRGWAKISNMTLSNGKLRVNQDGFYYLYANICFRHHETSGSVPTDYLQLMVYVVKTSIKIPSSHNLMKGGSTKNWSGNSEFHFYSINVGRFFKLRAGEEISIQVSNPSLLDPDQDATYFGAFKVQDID


Assays:
GST-RANKL [1] = target: T1, GST-RANKL; assay: Ex vivo RANKL-induced osteoclast formation (BM cells, M-CSF + GST-RANKL, TRAP staining); type: cell-based
Description: (§1) Instead, WT GST-RANKL (ratio 1:0) induced formation of TRAP+ giant osteoclasts (FIGS. 5A-5C). […] Incubation of WT GST-RANKL with GST at similar concentrations (12.5-100 ng/ml), didn't affect the formation of osteoclasts.
(§2) A novel small molecule inhibitor of TNF trimerization, named SPD304, has been recently reported^[35] to interact with glycine 122 (G122) that corresponds to G278 in RANKL.
(§3) BM cells were collected after flushing out of femurs and tibiae, subjected to gradient purification using FICOLL-PAQUE™ (GE Healthcare), plated in 24-well plates at a density of 5×10^5 cells per well and cultured in αMEM medium (GIBCO) containing 10% fetal bovine serum supplemented with 40 ng/ml RANKL (R&D Systems) and 25 ng/ml M-CSF (R&D Systems) for 5 days. Similarly, splenocytes were collected, plated in 24-well plates at a density of 10^6 cells per well and cultured in the presence of recombinant RANKL and M-CSF for 6 days. GST-RANKL^G278R was pre-incubated with WT GST-RANKL at room temperature for 20 min, prior to the stimulation of the BM cell cultures, in order to enable exchange of the RANKL variants and heterotrimer formation. Small molecule SPD304 (Sigma-Aldrich) was pre-incubated with 80 ng/ml GST-RANKL at various concentrations from 0.25 to 2 μM in αMEM medium for 1 hour at room temperature and then added to culture. Osteoclasts were stained for TRAP activity.

GST-RANKL [2] = assay: as above; type: cell-based, mouse; settings: ratio WT GST-RANKL:GST-RANKL^G278R 0:1
Description: as §1, §2, §3

RANK-Fc = target: T4, RANK-Fc (Mus musculus, UniProt O35305); assay: Binding assay of GST-RANKL^G278R to RANK; settings: immobilized protein, serial dilutions of murine RANK-Fc
T4 construct: purchased R&D systems
T4 sequence (O35305 with tags, fused parts or gaps limits assumed): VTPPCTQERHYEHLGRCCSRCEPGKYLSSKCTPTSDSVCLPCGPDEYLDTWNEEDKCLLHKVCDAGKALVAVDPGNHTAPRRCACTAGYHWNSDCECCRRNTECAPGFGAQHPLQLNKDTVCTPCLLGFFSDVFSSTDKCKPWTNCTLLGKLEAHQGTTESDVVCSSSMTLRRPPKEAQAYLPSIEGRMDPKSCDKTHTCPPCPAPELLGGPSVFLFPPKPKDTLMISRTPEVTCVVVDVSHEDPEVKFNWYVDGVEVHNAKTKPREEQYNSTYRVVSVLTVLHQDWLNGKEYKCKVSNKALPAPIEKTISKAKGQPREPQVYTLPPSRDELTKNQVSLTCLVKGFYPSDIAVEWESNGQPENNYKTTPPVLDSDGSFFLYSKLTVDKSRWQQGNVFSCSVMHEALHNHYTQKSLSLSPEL
Description: RANK-Fc interacted with GST-RANKL in a dose-dependent manner, but not with GST-RANKL^G278R or GST.
Nunc plates were coated with recombinant WT GST-RANKL, GST-RANKL^G278R or GST at 3 μg/ml and after blocking with 1% BSA, were incubated with increasing amount of recombinant mouse RANK-Fc (R&D systems). RANK binding was detected with a phycoerythrin (PE) conjugated goat anti-human IgG (Fc) (SouthernBiotech, Birmingham, USA) that was measured (539-573 nm) with the fluorescent plate reader TECAN infinite M200.

RANKL [3] = target: T2, RANKL; assay: Trimer formation in transfected HEK 293FT cells (native gel, Western blot); type: cell-based; settings: co-transfection with WT RANKL-FLAG
Description: (§4) Similar to the analysis of recombinant RANKL proteins, trimer formation was detected only in WT RANKL-Myc but not in RANKL^G278R-Myc.
(§5) HEK 293FT cells were transfected with 1 μg plasmid DNA using TransIt-293 transfection reagent (Mirus, Madison, Wis.). After 48 hours, transfected cells were harvested in PBS and the half quantity was diluted in equal volume of 2× Laemmli sample buffer, and analyzed in 12% acrylamide denatured gels. The remaining cells were lysed by sonication, centrifuged, and analyzed in 8% native acrylamide gels.

RANKL [4] = target: T3, RANKL; assay: as above; type: cell-based; settings: HEK 293FT, RANKL^G278R-Myc
Description: as §4, §5

| binding affinity for RANK-Fc (RANK-Fc) | effect on WT RANKL trimerization (RANKL [3]) | own trimer formation in eukaryotic cells (RANKL [4]) | Molecule | formation of TRAP+ giant multinucleated cells (GST-RANKL [1]; ratio WT GST-RANKL:GST-RANKL^G278R 1:1) | formation of multinucleated TRAP+ osteoclasts (GST-RANKL [1]; ratio WT GST-RANKL:GST-RANKL^G278R 1:2 (50 ng/ml GST-RANKL, 100 ng/ml variant)) | formation of TRAP+ giant multinucleated cells (GST-RANKL [1]; ratio WT GST-RANKL:GST-RANKL^G278R 2:1) | formation of giant osteoclast-like cells (GST-RANKL [1]; ratio WT GST-RANKL:GST-RANKL^G278R 4:1 or higher) | induction of TRAP+ cells by the variant alone (GST-RANKL [2]) |
| --- | --- | --- | --- | --- | --- | --- | --- | --- |
| completely abolished | – | – | GST-RANKL^G278R: murine RANKL ectodomain residues 158-316 with G278R substitution, fused to GST (protein) KPEAQPFAHLTINAASIPSGSHKVTLSSWYHDRGWAKISNMTLSNGKLRVNQDGFYYLYANICFRHHETSGSVPTDYLQLMVYVVKTSIKIPSSHNLMKGGSTKNWSGNSEFHFYSINVGRFFKLRAGEEISIQVSNPSLLDPDQDATYFGAFKVQDID | completely impaired the formation of TRAP+ giant multinucleated cells | Complete inhibition in the formation of multinucleated TRAP+ osteoclasts | a small number of TRAP+ giant multinucleated cells was formed | Formation of giant osteoclast-like-cells appeared | failed to induce formation of TRAP+ cells |
| – | inhibits WT RANKL trimerization | fails to form trimers | RANKL^G278R: murine RANKL with glycine to arginine substitution at residue 278; soluble or full-length Myc-tagged (protein, UniProt O35235 139-316, looked up, variant G278R, Myc tag, murine RANKL with glycine to arginine substitution at residue 278; soluble or full-length Myc-tagged) Tumor necrosis factor ligand …: FSGAPAMMEGSWLDVAQRGKPEAQPFAHLTINAASIPSGSHKVTLSSWYHDRGWAKISNMTLSNGKLRVNQDGFYYLYANICFRHHETSGSVPTDYLQLMVYVVKTSIKIPSSHNLMKGGSTKNWSGNSEFHFYSINVGRFFKLRAGEEISIQVSNPSLLDPDQDATYFGAFKVQDID | – | – | – | – | – |
